From patent US7462599

Legend:
[1] = target: recombinant human glutaminyl cyclase (QC, EC 2.3.2.5) (human) (UniProt Q16769); assay: competitive inhibition of the human QC catalyzed reaction, 30° C, 0.05 M Tris-HCl pH 8.0, 5 mM EDTA
[2] = system: T1, H-Gln(NMe)-Phe-Lys-Ala-Glu-NH2
T1 sequence: QFKAE

[3] = system: T2, H-Gln-Ala-Ala-Ala-Ala-NH2
T2 sequence: QAAAA

H-Gln-Ala-Ala-NH2 = system: T3, H-Gln-Ala-Ala-NH2
T3 sequence: QAA

[4] = system: T4, H-Gln-Ala-Ala-Ser-Ala-Ala-NH2
T4 sequence: QAASAA

H-Gln-Ala-NH2 = system: T5, H-Gln-Ala-NH2
T5 sequence: QA

H-Gln-Ala-OH = system: T6, H-Gln-Ala-OH
T6 sequence: QA

H-Gln-Arg-Gly-Ile-NH2 = system: T7, H-Gln-Arg-Gly-Ile-NH2
T7 sequence: QRGI

H-Gln-Arg-Tyr-Phe-NH2 = system: T8, H-Gln-Arg-Tyr-Phe-NH2
T8 sequence: QRYF

H-Gln-Asn-Gly-Ile-NH2 = system: T9, H-Gln-Asn-Gly-Ile-NH2
T9 sequence: QNGI

H-Gln-Gln-OH = system: T10, H-Gln-Gln-OH
T10 sequence: QQ

H-Gln-Gln-Tyr-Phe-NH2 = system: T11, H-Gln-Gln-Tyr-Phe-NH2
T11 sequence: QQYF

H-Gln-Glu-Ala-Ala-NH2 = system: T12, H-Gln-Glu-Ala-Ala-NH2
T12 sequence: QEAA

H-Gln-Glu-Ala-Phe-NH2 = system: T13, H-Gln-Glu-Ala-Phe-NH2
T13 sequence: QEAF

H-Gln-Glu-Asp-Leu-NH2 = system: T14, H-Gln-Glu-Asp-Leu-NH2
T14 sequence: QEDL

H-Gln-Glu-OH = system: T15, H-Gln-Glu-OH
T15 sequence: QE

H-Gln-Glu-Tyr-Ala-NH2 = system: T16, H-Gln-Glu-Tyr-Ala-NH2
T16 sequence: QEYA

H-Gln-Glu-Tyr-NH2 = system: T17, H-Gln-Glu-Tyr-NH2
T17 sequence: QEY

H-Gln-Glu-Tyr-Phe-NH2 = system: T18, H-Gln-Glu-Tyr-Phe-NH2
T18 sequence: QEYF

H-Gln-Gly-OH = system: T19, H-Gln-Gly-OH
T19 sequence: QG

H-Gln-Gly-Pro-OH = system: T20, H-Gln-Gly-Pro-OH
T20 sequence: QGP

H-Gln-His-Tyr-Phe-NH2 = system: T21, H-Gln-His-Tyr-Phe-NH2
T21 sequence: QHYF

H-Gln-Lys-Arg-Leu-NH2 = system: T22, H-Gln-Lys-Arg-Leu-NH2
T22 sequence: QKRL

H-Gln-Phe-Ala-NH2 = system: T23, H-Gln-Phe-Ala-NH2
T23 sequence: QFA

H-Gln-Pro-Tyr-Phe-NH2 = system: T24, H-Gln-Pro-Tyr-Phe-NH2
T24 sequence: QPYF

H-Gln-Ser-Tyr-Phe-NH2 = system: T25, H-Gln-Ser-Tyr-Phe-NH2
T25 sequence: QSYF

H-Gln-Trp-Ala-NH2 = system: T26, H-Gln-Trp-Ala-NH2
T26 sequence: QWA

H-Gln-Tyr-Ala-OH = system: T27, H-Gln-Tyr-Ala-OH
T27 sequence: QYA

[5] = system: T28, H-Gln-cyclo(Nε-Lys-Arg-Pro-Ala-Gly-Phe)
T28 sequence: QKRPAGF

[6] = system: T29, H-βhomoGln-Phe-Lys-Arg-Leu-Ala-NH2
T29 sequence: QFKRLA

[Gln^1]-FPP = system: T30, [Gln^1]-FPP
T30 sequence: QEP

[Gln^1]-Gastrin = system: T31, [Gln^1]-Gastrin
T31 sequence: QGPWLEEEEEAYGWMDF

[Gln^1]-GnRH = system: T32, [Gln^1]-GnRH
T32 sequence: QHWSYGLRPG

[Gln^3]-glucagon(3-29) = [Gln^3]-glucagon(3-29) (UniProt P01275)
Chain of [Gln^3]-glucagon(3-29) (P01275 23-49): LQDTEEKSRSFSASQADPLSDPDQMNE

[7] = system: T33, [Gln^5]-substance P(5-11)
T33 sequence: QQFFGLM

Chain of recombinant human glutaminyl cyclase (QC, EC 2.3.2.5) (human) (Q16769 29-361 limits assumed): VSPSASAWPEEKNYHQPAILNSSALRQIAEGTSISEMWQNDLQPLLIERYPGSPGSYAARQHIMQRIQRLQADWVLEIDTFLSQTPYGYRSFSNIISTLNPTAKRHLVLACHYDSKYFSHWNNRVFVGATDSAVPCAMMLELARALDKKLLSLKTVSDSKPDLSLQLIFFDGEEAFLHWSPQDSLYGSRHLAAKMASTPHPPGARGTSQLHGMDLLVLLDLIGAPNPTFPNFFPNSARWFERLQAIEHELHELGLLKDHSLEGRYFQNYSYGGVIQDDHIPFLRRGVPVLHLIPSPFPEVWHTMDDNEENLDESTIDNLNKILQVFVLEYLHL

H-His-Trp-OH (peptide) gave a Ki [1] of 600 µM.

In the case of “glutaminyl cyclase from Carica papaya latex”, the “conversion to the pyroglutamyl peptide (MALDI-TOF)” value [2] is reported as “The methylated glutaminyl residue was only converted into a pyroglutamyl residue by papaya QC”, the KM (substrate conversion by QC) [3] is reported as 197 µM and the KM (substrate conversion by QC) (H-Gln-Ala-Ala-NH2) is reported as 164 µM. It also gave a KM (substrate conversion by QC) [4] of 216 µM, a KM (substrate conversion by QC) (H-Gln-Ala-NH2) of 212 µM and a KM (0.05 M Tricine-NaOH, pH 8.0) (H-Gln-Ala-OH) of 0.137 mM. For the same substance, the KM (0.05 M Tricine-NaOH, pH 8.0, 0.5 M KCl) (H-Gln-Ala-OH) was 0.143 mM, the KM (substrate conversion by QC) (H-Gln-Ala-OH) was 158 µM and the KM (0.05 M Tricine-NaOH, pH 8.0) (H-Gln-Arg-Gly-Ile-NH2) was 0.106 mM. For the same substance, the KM (0.05 M Tricine-NaOH, pH 8.0, 0.5 M KCl) (H-Gln-Arg-Gly-Ile-NH2) was 0.065 mM, the KM (substrate conversion by QC) (H-Gln-Arg-Gly-Ile-NH2) was 123 µM and the KM (substrate conversion by QC) (H-Gln-Arg-Tyr-Phe-NH2) was 124 µM. It also gave a KM (substrate conversion by QC) (H-Gln-Asn-Gly-Ile-NH2) of 153 µM, a KM (substrate conversion by QC) (H-Gln-Gln-OH) of 44 µM and a KM (substrate conversion by QC) (H-Gln-Gln-Tyr-Phe-NH2) of 45 µM. The KM (substrate conversion by QC) (H-Gln-Glu-Ala-Ala-NH2) was 102 µM, the KM (substrate conversion by QC) (H-Gln-Glu-Ala-Phe-NH2) was 81 µM and the KM (0.05 M Tricine-NaOH, pH 8.0) (H-Gln-Glu-Asp-Leu-NH2) was 0.109 mM. It also gave a KM (0.05 M Tricine-NaOH, pH 8.0, 0.5 M KCl) (H-Gln-Glu-Asp-Leu-NH2) of 0.094 mM, a KM (substrate conversion by QC) (H-Gln-Glu-Asp-Leu-NH2) of 107 µM and a KM (0.05 M Tricine-NaOH, pH 8.0) (H-Gln-Glu-OH) of 0.098 mM. The KM (0.05 M Tricine-NaOH, pH 8.0, 0.5 M KCl) (H-Gln-Glu-OH) was 0.094 mM, the KM (substrate conversion by QC) (H-Gln-Glu-OH) was 106 µM and the KM (substrate conversion by QC) (H-Gln-Glu-Tyr-Ala-NH2) was 113 µM. For the same substance, the KM (substrate conversion by QC) (H-Gln-Glu-Tyr-NH2) was 103 µM, the KM (substrate conversion by QC) (H-Gln-Glu-Tyr-Phe-NH2) was 100 µM and the KM (substrate conversion by QC) (H-Gln-Gly-OH) was 641 µM. For the same substance, the KM (substrate conversion by QC) (H-Gln-Gly-Pro-OH) was 333 µM, the KM (substrate conversion by QC) (H-Gln-His-Tyr-Phe-NH2) was 92 µM and the KM (0.05 M Tricine-NaOH, pH 8.0) (H-Gln-Lys-Arg-Leu-NH2) was 0.102 mM. For the same substance, the KM (0.05 M Tricine-NaOH, pH 8.0, 0.5 M KCl) (H-Gln-Lys-Arg-Leu-NH2) was 0.053 mM, the KM (substrate conversion by QC) (H-Gln-Lys-Arg-Leu-NH2) was 118 µM and the KM (substrate conversion by QC) (H-Gln-Phe-Ala-NH2) was 111 µM. The KM (substrate conversion by QC) (H-Gln-Pro-Tyr-Phe-NH2) was 149 µM, the KM (substrate conversion by QC) (H-Gln-Ser-Tyr-Phe-NH2) was 135 µM and the KM (0.05 M Tricine-NaOH, pH 8.0) (H-Gln-Trp-Ala-NH2) was 0.079 mM. The KM (0.05 M Tricine-NaOH, pH 8.0, 0.5 M KCl) (H-Gln-Trp-Ala-NH2) was 0.072 mM, the KM (substrate conversion by QC) (H-Gln-Trp-Ala-NH2) was 78 µM and the KM (substrate conversion by QC) (H-Gln-Tyr-Ala-OH) was 63 µM. For the same substance, the “KM (substrate conversion by QC)” value [5] was “KM-values of 240±14 µM and 133±5 µM for human and papaya QC, respectively”, the “KM (substrate conversion by QC)” value [6] was “KM=3.1±0.3 mM” and the KM (substrate conversion by QC) ([Gln^1]-FPP) was 232 µM. For the same substance, the KM (substrate conversion by QC) ([Gln^1]-Gastrin) was 34 µM, the KM (substrate conversion by QC) ([Gln^1]-GnRH) was 169 µM and the KM (substrate conversion by QC) ([Gln^1]-Neurotensin) was 40 µM. The “substrate conversion, determined qualitatively by MALDI-TOF” value ([Gln^3]-glucagon(3-29)) was “*” and the “substrate conversion, determined qualitatively by MALDI-TOF” value [7] was “*”.
